± gives the uncertainty stated by the source.
B1: CD2-associated protein, residues 271 to 331; numbered along this chain, Q9Y5K6 (parent)
chain: KEYCRTLFAYEGTNEDELTFKEGEIIHLISKETGEAGWWRGELNGKEGVFPDNFAVQINEL

Variants of: B1
Test: abundance fitness (aPCA) (normalised: wild type 0, dead -1); higher = more abundant; growth selection in yeast, the domain comes from the species named
Conditions: Homo sapiens

Row | Variant | abundance fitness
1 | KEYCRTLFAYEGTNEFELTFKEGEIIHLISKETGEAGWWRGELNGKEGVFPDNFAVQINEL [D16F] | -0.002 ± 0.073
2 | KEYCRTLFAYEGTNEDELTFKEGEIIHLISKETGEAGWWRGELNGKEGVFPDNFAVQILEL [N59L] | -0.501 ± 0.095
3 | KEYCRTLFAYEGTNEDELTFKEGEIIHLISKETGEAGWWRGELNGKEGVFPDNFAVQIYEL [N59Y] | -0.332 ± 0.26
4 | KEYCRTLFAYEGTNEDELTFKEGEIIHLQSKETGEAGWWRGELNGKEGVFPDNFAVQINEL [I29Q] | -0.494 ± 0.097
5 | KEYCRTLFAYEGTNEDELTFKEGEIIHLTSKETGEAGWWRGELNGKEGVFPDNFAVQINEL [I29T] | -0.215 ± 0.07
6 | KEYCRTLFAYEGTNEDHLTFKEGEIIHLISKETGEAGWWRGELNGKEGVFPDNFAVQINEL [E17H] | -0.107 ± 0.1
7 | KEYCRTLFAYEGTNEDELTFKEWEIIHLISKETGEAGWWRGELNGKEGVFPDNFAVQINEL [G23W] | -0.532 ± 0.088
8 | KEYCRTLFAYEGTNEDELTFKEHEIIHLISKETGEAGWWRGELNGKEGVFPDNFAVQINEL [G23H] | -0.644 ± 0.16
9 | KEYCRTLFAYEGTNEDELTFKEGEIIHLISKETGEAGWWRGELNEKEGVFPDNFAVQINEL [G45E] | -0.448 ± 0.086
10 | KEYCRELFAYEGTNEDELTFKEGEIIHLISKETGEAGWWRGELNGKEGVFPDNFAVQINEL [T6E] | -0.698 ± 0.25
11 | KEYCRALFAYEGTNEDELTFKEGEIIHLISKETGEAGWWRGELNGKEGVFPDNFAVQINEL [T6A] | -0.014 ± 0.091
12 | KEYCRTLFAYEGTNEDELTFKEGEIIHLISKETGEHGWWRGELNGKEGVFPDNFAVQINEL [A36H] | -0.199 ± 0.15
13 | KEYCRTLFAYEGTNEDELTFKEGEIIHLISKETGEIGWWRGELNGKEGVFPDNFAVQINEL [A36I] | -0.193 ± 0.17
14 | KEYCRTLFAYEGTNEDELTFKEGEIIHLISKETGEWGWWRGELNGKEGVFPDNFAVQINEL [A36W] | -0.22 ± 0.068
15 | KEYCRTLFAYEGTNEDELTFKEGEIIHLISKETGEMGWWRGELNGKEGVFPDNFAVQINEL [A36M] | -0.18 ± 0.14
16 | KEYCRTLFAYEGTNEDELTFKEGEIGHLISKETGEAGWWRGELNGKEGVFPDNFAVQINEL [I26G] | -0.856 ± 0.13
17 | KEYCRTLFAYEGTNEDELTFKEGEIIHLISKETGEAGWWRGELNGKEGVFPDAFAVQINEL [N53A] | -0.003 ± 0.052
18 | KEYCRTLFAYEGTNEDELTFKEGEIIHLISKETGEAGWWRGELNGKEGVFPDKFAVQINEL [N53K] | 0.133 ± 0.18
19 | KEYCRTLFAYEGTNEDELTFKEGEIIHLISKETGEAGWWRGELNGKEGVNPDNFAVQINEL [F50N] | -0.809 ± 0.36
20 | KEYCRTLFAYEGTNEDELTFKEGEIIHLISKETGEAGWWRGELNGKEGVFPDNFAVQINDL [E60D] | 0.172 ± 0.24
21 | KEYCRTLFAYEGTNEDELTFKEGEIIHLISKETGEAGWWRGELNGKEGVFPDNFAVQINSL [E60S] | -0.124 ± 0.091
22 | KEYCRTLFAYEGTNEDELTFKEGEIIHLISKETGEAGWWRGELNGKEGVFPDNFAVQINIL [E60I] | -0.475 ± 0.18

Row | Variant | abundance fitness
23 | KEYCRTLFAYEGTNEDELTFKEGEIIHLISKETGEAGWWQGELNGKEGVFPDNFAVQINEL [R40Q] | -0.3 ± 0.071
24 | KEYCRTLFAYEGPNEDELTFKEGEIIHLISKETGEAGWWRGELNGKEGVFPDNFAVQINEL [T13P] | -0.594 ± 0.089
25 | KEYCRTLFAAEGTNEDELTFKEGEIIHLISKETGEAGWWRGELNGKEGVFPDNFAVQINEL [Y10A] | -0.686 ± 0.14
26 | KEYCRTLFAYEGTNEDELTFKEGEIIHLISKEYGEAGWWRGELNGKEGVFPDNFAVQINEL [T33Y] | -0.222 ± 0.1
27 | KEYCRTLFAYEGTNEDELTFKEGEIIHLISKEDGEAGWWRGELNGKEGVFPDNFAVQINEL [T33D] | -0.282 ± 0.12
28 | KETCRTLFAYEGTNEDELTFKEGEIIHLISKETGEAGWWRGELNGKEGVFPDNFAVQINEL [Y3T] | -0.608 ± 0.12
29 | KEFCRTLFAYEGTNEDELTFKEGEIIHLISKETGEAGWWRGELNGKEGVFPDNFAVQINEL [Y3F] | 0.001 ± 0.11
30 | KEYCRTLFAYEGTNEDELTFKEGEIIHLISKETGEAGWWRGMLNGKEGVFPDNFAVQINEL [E42M] | -0.02 ± 0.1
31 | KEYCRTLFAYEETNEDELTFKEGEIIHLISKETGEAGWWRGELNGKEGVFPDNFAVQINEL [G12E] | -0.434 ± 0.11
32 | KEYCRTLFAYEWTNEDELTFKEGEIIHLISKETGEAGWWRGELNGKEGVFPDNFAVQINEL [G12W] | -0.471 ± 0.11
33 | KEYCRTLFAYEGTNEDELTFKEGEIIHLISKETAEAGWWRGELNGKEGVFPDNFAVQINEL [G34A] | -0.216 ± 0.094
34 | KEYCRTLFAYEGTNEDELTFKEGEIIKLISKETGEAGWWRGELNGKEGVFPDNFAVQINEL [H27K] | 0.031 ± 0.087
35 | KEYCRTLFAYEGTNEDELTFKEGEIIQLISKETGEAGWWRGELNGKEGVFPDNFAVQINEL [H27Q] | -0.021 ± 0.091
36 | KEYCRTLFAYEGTNEDELCFKEGEIIHLISKETGEAGWWRGELNGKEGVFPDNFAVQINEL [T19C] | -0.287 ± 0.064
37 | KEYCRTLFAYEGTNEDELTFKEGEIIHLISKETGQAGWWRGELNGKEGVFPDNFAVQINEL [E35Q] | 0.036 ± 0.067
38 | KEYCRTLFAYEGTNEDELTFKEGEIIHLISKETGEAGWWRHELNGKEGVFPDNFAVQINEL [G41H] | -0.746 ± 0.25
39 | KEYCRTLFAYEGTNEDELTFKEGEIIHLISKETGEAGWWRDELNGKEGVFPDNFAVQINEL [G41D] | -0.616 ± 0.18
40 | KEYCRTLFAYEGTNEDELTFKEGEIIHLISKETGEAGWWRGELNGKEGVFPDNMAVQINEL [F54M] | -0.079 ± 0.08
41 | KEYCRTLFAYEGTNEDELTFKEGEIIHLISKETGEAGWWRGELNGKEGVFPDNSAVQINEL [F54S] | 0.099 ± 0.067
42 | KKYCRTLFAYEGTNEDELTFKEGEIIHLISKETGEAGWWRGELNGKEGVFPDNFAVQINEL [E2K] | -0.084 ± 0.13
43 | KEYCRTLFAYEGTNEDELTFKEGEIIHLISKPTGEAGWWRGELNGKEGVFPDNFAVQINEL [E32P] | -0.553 ± 0.072

Source: the Human Domainome abundance scans (Beltran et al. 2025)
